This is an account of results in article PMC3753628, “Recognition and processing of double-stranded DNA by ExoX, a distributive 3′–5′ exonuclease”.

Data set [1] concerns the target T1, ExoX (NT167) (Escherichia coli K12, UniProt P0AEK0 1-167).
T1 sequence: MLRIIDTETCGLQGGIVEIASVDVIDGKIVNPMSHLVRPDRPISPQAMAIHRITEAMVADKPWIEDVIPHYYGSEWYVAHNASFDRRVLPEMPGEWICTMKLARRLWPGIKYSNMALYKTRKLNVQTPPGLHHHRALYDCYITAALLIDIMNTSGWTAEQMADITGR
Kind of data set: X-ray crystallography; Crystals by hanging drop, 16 C: complex I 0.1 M Tris-HCl pH 8.0, 0.2 M NaCl, 20% PEG 3350; complexes II and III 0.1 M MES pH 6.3, 17% PEG 6000; protein:DNA 1:0.6, 30 min at 4 C, gel filtration. The conditions noted are these: protein: recombinant; (pET24a, Ni-NTA); chain copies: 2; self-annealed, 2 copies of S2; 5' overhang 5 nt, mispaired 3' terminal nucleotides. (In general: In gel filtration, larger molecules generally elute earlier.)

Data set [2] addresses T1, ExoX (NT167). Kind of data set: X-ray crystallography; two undefined metal ions (MeA, MeB), probably inactive (Ni2+ or Na+); SeMet ExoX; 2:1 protein:DNA; Crystals by hanging drop, 16 C: complex I 0.1 M Tris-HCl pH 8.0, 0.2 M NaCl, 20% PEG 3350; complexes II and III 0.1 M MES pH 6.3, 17% PEG 6000; protein:DNA 1:0.6, 30 min at 4 C, gel filtration. The settings on record: protein: recombinant; (pET24a, Ni-NTA; chain copies: 2; text says 17 bp).

Data set [3] deals with T1, ExoX (NT167). Kind of data set: X-ray crystallography; 2 ExoX monomers per DNA; metal at MeA site; Crystals by hanging drop, 16 C: complex I 0.1 M Tris-HCl pH 8.0, 0.2 M NaCl, 20% PEG 3350; complexes II and III 0.1 M MES pH 6.3, 17% PEG 6000; protein:DNA 1:0.6, 30 min at 4 C, gel filtration. The conditions noted are these: protein: recombinant; (pET24a, Ni-NTA); chain copies: 2; blunt.

B1: 3' recessed mismatch-containing dsDNA (complex III) (dsDNA)
DNA 1: GTCATTGTGGATCCGAG
DNA 2: GTCATTGTGGATCCGAG
With B1, the binding result in the data set with ExoX (NT167) [1] is on record as “binds”.

B2: 3' overhanging dsDNA (complex I) (dsDNA)
DNA 1: CGGATCCACAATGACCT
DNA 2: GTCATTGTGGATCCGAG
Take B2: in the data set with ExoX (NT167) [2], the binding result is recorded as “binds”.

B3: 12 bp blunt-ended dsDNA (complex II) (dsDNA)
DNA 1: CTCGAATCTACA
DNA 2: TGTAGATTCGAG
Take B3: the binding result with ExoX (NT167) [3] is “binds”.
